Measurements taken from patent US20240117402A1, “METHODS FOR (POLY) PEPTIDE TANDEM LIGATION AND CYCLIZATION” (Nanyang Technological University, priority 2021, published 2024).
Where two headings read alike, the source gives them in different places. Each block holds one molecule with its values, some of them ahead of it. Where a SMILES comes first, the peptide text is derived from it. Where no end group is shown, it is not given here.

How the values were obtained:
MCF-7 cells [1] = test: MTT cell viability assay, MCF-7; type: cell-based
MCF-7 cells [2] = test: Fluorescence microscopy cell binding/staining, MCF-7; type: cell-based; settings: MCF-7, 30-min treatment
Water solubility = type: physicochemical
[3] = test system: EGFR-overexpressing A431 cells; test: Fluorescence microscopy cell binding/staining, A431; type: cell-based; settings: A431, 30-min treatment
A431 cells = test: MTT cell viability assay, A431; type: cell-based
OaAEP1b = test: OaAEP1b-catalyzed peptide cyclization (substrate screen, pH scan, kinetics); type: biochemical; settings: for Km / kcat: cyclization
Description: (§1) FIG. 9. Screening of P1′-Asp peptides for cyclization by A) VyPAL2, B) butelase-1 and C) OaAEP1b. Quantitative summary of reaction yields of the reaction mixtures. For each reaction, 25 nM of the enzyme and 5 μM of the peptide substrate (21a-21i) were mixed and reacted at pH 4.5, 25° C. for 60 min. The positive control peptide 21j was performed at the same conditions except at pH 7.4. Average yields and SDs were calculated from experiments performed in triplicate. The amino acid sequence of the peptides used are set forth in SEQ ID Nos. 15-24.
(§2) FIG. 10. Ligation activity of three different ligases under different pH and substrate. Cyclization activity of A) VyPAL2, B) Butelase-1 or C) OaAEP1b towards substrate 21e-DSL and 21j-NGL; Fold difference was calculated using the cyclization rate of 21j-NGL divided by that of 21e-DSL. All the results were the average reaction rate at different pH in triplicate experiments based on MALDI-TOF analysis. Light grey text in the “Fold difference” axis marks to the maximum fold difference.
(§3) FIG. 11. Enzymatic activity of three different ligases on the cyclization reaction of P1-Asp peptide 21e-DSL or 21a-DGL and P1-Asn-peptide 21j-NGL. A) Scheme of PAL-mediated P1-Asp peptide cyclization; B) Enzymatic kinetics of VyPAL2 in cyclizing 21e-DSL at pH 4.5; C) Enzymatic kinetics of VyPAL2 in cyclizing 21e-DSL at pH 7.0; D) Enzymatic kinetics of OaAEP1b in cyclizing 21a-DGL at pH 5.5; E) Enzymatic kinetics of Butelase-1 in cyclizing 21e-DSL at pH 4.5. F) Scheme of PAL-mediated cyclization of peptide 21j-NGL; G). Enzymatic kinetics of butelase-1 in cyclizing […] at pH 4.5; H)
(§4) Enzymatic kinetics of VyPAL2 in cyclizing 21j-NSL at pH 4.5; I) Enzymatic kinetics of butelase-1 in cyclizing 21j-NSL at pH 7.4; J) Enzymatic kinetics of OaAEP1b in cyclizing 21j-NSL at pH 7.0. Sequences of peptides used are set forth in SEQ ID Nos. 15, 19, 24.
(§5) PALs recognize a tripeptide motif Asx-P1′-P2′ in the acyl donor substrate for their catalyzed ligation reactions. Because the formation of the acyl-enzyme thioester intermediate is the rate-limiting step, the leaving group P1′-P2′ also plays an important role in determining the catalytic kinetics of a particular 40 PAL-mediated reaction. Previous studies have determined Leu as a preferred P2′ residue. To identify the most favorable P1′ residues for PAL-catalyzed Asp-ligation, a panel of peptides (peptide 21a-21j) with C-terminal DXL and N-terminal GI motifs was synthesized and cyclization reactions performed. Peptide 21j with a C-terminal NGL, a P1-Asn peptide favored by VyPAL2, was used for comparison with the P1-Asp peptides 21a-21i. […] Meanwhile, the P1′ substrate specificities of the two other ligases - Butelase-1 and OaAEP1b - were also evaluated by using the same substrates 21a-21j.
(§6) A pH scan experiment with the other two ligases: butelase-1 and OaAEP1 b, for their cyclase activity on 21e and 21j was also conducted. […] In fact, the difference in reaction efficiency between 21j and 21e was about 950 times at pH 7.4 (FIG. 10). […] This makes VyPAL2 a more efficient ligase than butelase-1 for Asp-mediated protein modification.
It seems that the microenvironment within the 51 pocket of OaAEP1 b has a unique ability to maintain the γCOOH of P1-Asp in the protonated form. However, for OaAEP1b-catalyzed cyclization, the difference in reactivity between 21j and 21e at pH 4.0-7.4 was not very high. The biggest difference was 9.5 folds at pH 7.4. […]

VyPAL2 = test: VyPAL2-catalyzed peptide cyclization (substrate screen, pH scan, kinetics); type: biochemical, Viola yedoensis
Description: as §1, §2, §3, §4, §5
scanning experiment using the two peptides 21e and 21j was performed. Cyclization reactions were conducted by mixing 5 μM of peptide 21e or 50 μM of 21j with 25 nM of VyPAL2 over a pH range of 4.0 to 7.4. Results confirmed that the optimum pH for the cyclization of the P1-Asn peptide 21j was 6.5-7.4. But for the P1-Asp peptide 21e (which has the C-terminal DSL tripeptide), the optimum pH was 4.0-4.5.
It is worth noting that, at pH 7.4, VyPAL2 processed peptide 21j for cyclization at a rate that is >1000 folds faster than processing peptide 21e (FIG. 10). This enormous difference of reactivity essentially established the orthogonality for ligation at Asn in the presence of aspartyl bonds.

butelase-1 = test: Butelase-1-catalyzed peptide cyclization (substrate screen, pH scan, kinetics); type: biochemical; settings: for Km / kcat: Butelase-1, cyclization
Chain of butelase-1 (as listed by the source): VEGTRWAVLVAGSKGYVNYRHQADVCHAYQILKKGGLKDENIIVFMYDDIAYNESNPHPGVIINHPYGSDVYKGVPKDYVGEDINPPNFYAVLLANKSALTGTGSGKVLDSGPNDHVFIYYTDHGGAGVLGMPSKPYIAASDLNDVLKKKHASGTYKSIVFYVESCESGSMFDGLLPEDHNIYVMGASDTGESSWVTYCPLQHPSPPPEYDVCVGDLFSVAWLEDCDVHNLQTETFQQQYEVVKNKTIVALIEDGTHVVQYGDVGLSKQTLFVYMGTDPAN
Description: as §1, §2, §3, §4, §5, §6

[4] = target: T1, Peptide 21j (SEQ ID NO:24), GISTKSIPPISYRNGL
T1 chain: GISTKSIPPISYRNGL

[5] = target: T2, Peptide 21a (SEQ ID NO:15), GISTKSIPPISYRDGL
T2 chain: GISTKSIPPISYRDGL

[6] = target: T3, Peptide 7 (SEQ ID NO:11), Ac-KKLAVINGF
T3 chain: KKLAVINGF

[7] = target: T4, Peptide 5 (SEQ ID NO:10), GFGGIKA
T4 chain: GFGGIKA

[8] = target: T5, Peptide 1 (SEQ ID NO:7), Ac-KKLAVINHV
T5 chain: KKLAVINHV

[9] = target: T6, Peptide 21e (SEQ ID NO:19), GISTKSIPPISYRDSL
T6 chain: GISTKSIPPISYRDSL

Molecule: COc1cccc2c1C(=O)c1c(O)c3c(c(O)c1C2=O)C[C@@](O)(C(=O)CO)C[C@@H]3O[C@H]1C[C@H](N)[C@H](O)[C@H](C)O1 [Dox, doxorubicin]
IC50 (MCF-7 cells [1]; Homo sapiens, MCF7, MCF-7, 36 h, MTT, read-out: IC50): 1 ± 0.02 µM
IC50 (MCF-7 cells [1]; Homo sapiens, MCF7, MCF-7, 96 h, MTT, read-out: IC50): 1.6 ± 0.23 µM
cell staining (confocal) (MCF-7 cells [2]; 10 μM): stained
cell staining (MCF-7 cells [2]; 2 μM 20, 10 μM DOX): stained
water solubility (Water solubility): poorly soluble in water
cell staining (confocal) ([3]; 10 μM): stained
cell staining ([3]; 2 μM 20, 10 μM DOX): stained
IC50 (A431 cells; Homo sapiens, A-431, A431, 36 h, MTT, read-out: IC50): 1.3 ± 0.04 µM
IC50 (A431 cells; Homo sapiens, A-431, A431, 96 h, MTT, read-out: IC50): 1.22 ± 0.15 µM

Molecule: CC[C@H](C)[C@H](NC(=O)CN)C(=O)NCC(=O)NCC(=O)N[C@@H](Cc1ccccc1)C(=O)N[C@@H](CCCCN)C(=O)NCC(=O)NCC(=O)N[C@H](CCCCN)C(=O)N[C@H](CC(C)C)C(=O)N[C@H](C)C(=O)N[C@H](CCCCN)C(=O)N[C@H](CC(C)C)C(=O)N[C@H](C)C(=O)N[C@H](CCCCN)C(=O)N[C@H](CCCCN)C(=O)N[C@H](CC(C)C)C(=O)N[C@H](C)C(=O)N[C@H](CCCCN)C(=O)N[C@H](CC(C)C)C(=O)N[C@H](C)C(=O)N[C@H](CCCCN)C(N)=O [Peptide 11] (HELM PEPTIDE1{G.I.G.G.F.K.G.G.[dK].[dL].[dA].[dK].[dL].[dA].[dK].[dK].[dL].[dA].[dK].[dL].[dA].[dK].[am]}$$$$V2.0; N-terminus assumed)
IC50 (MCF-7 cells [1]; 84 h): ~480 µM
IC50 (A431 cells; 84 h): ~1300 µM

B1: OaAEP1b (SEQ ID NO:44) (protein)
chain: SVGTRWAVLIAGSKGYANYRHQAGVCHAYQILKRGGLKDENIVVFMYDDIAYNESNPRPGVIINSPHGSDVYAGVPKDYTGEEVNAKNFLAAILGNKSAITGGSGKVVDSGPNDHIFIYYTDHGAAGVIGMPSKPYLYADELNDALKKKHASGTYKSLVFYLEACESGSMFEGILPEDLNIYALTSTNTTESSWAYYCPAQENPPPPEYNVCLGDLFSVAWLEDSDVQNSWYETLNQQYHHVDKRISHASHATQYGNLKLGEEGLFVYMGSNPANDNYTSLDGNALTPSSIVVNQRDAD
Km, cyclization at pH 7.0 [4]: 25.3 µM
kcat, cyclization at pH 7.0 [4]: 5.5 s⁻¹
kcat/Km, cyclization at pH 7.0 [4]: 211000 ± 8260 M^-1s^-1
Km, cyclization at pH 5.5 [5]: 35.1 µM
kcat, cyclization at pH 5.5 [5]: 5.9 s⁻¹
kcat/Km, cyclization at pH 5.5 [5]: 172000 ± 9250 M^-1s^-1

B2: VyPAL2 (asparaginyl ligase, active form, SEQ ID NO:1) (protein)
chain: DSIGTRWAVLIAGSKGYHNYRHQADVCHMYQILRKGGVKDENIIVFMYDDIAYNESNPFPGIIINKPGGENVYKGVPKDYTGEDINNVNFLAAILGNKSAIIGGSGKVLDTSPNDHIFIYYADHGAPGKIGMPSKPYLYADDLVDTLKQKAATGTYKSMVFYVEACNAGSMFEGLLPEGTNIYAMAASNSTEGSWITYCPGTPDFPPEFDVCLGDLWSITFLEDCDAHNLRTETVHQQFELVKKKIAYASTVSQYGDIPISKDSLSVYM
Km, intermolecular ligation of peptide 7 (varied) with nucleophile peptide 2 [6]: 155 µM
kcat, intermolecular ligation of peptide 7 (varied) with nucleophile peptide 2 [6]: 1.1 S^-1
kcat/Km, intermolecular ligation of peptide 7 (varied) with nucleophile peptide 2 [6]: 7220 M^-1S^-1
Km, cyclization at pH 4.5 [4]: 28.4 µM
Km, cyclization at pH 7.4 [4]: 25.8 µM
Vmax, cyclization at pH 7.4 [4]: with Vmax of 0.004 and 5.633 µM/min respectively
kcat, cyclization at pH 4.5 [4]: 1.9 s⁻¹
kcat, cyclization at pH 7.4 [4]: 5.5 s⁻¹
kcat/Km, cyclization at pH 4.5 [4]: 67000 ± 3230 M^-1s^-1
kcat/Km, cyclization at pH 7.4 [4]: 214000 ± 3900 M^-1s^-1
Km, intermolecular ligation of GF-peptide 5 (varied) with acyl substrate peptide 4 [7]: 424 µM
kcat, intermolecular ligation of GF-peptide 5 (varied) with acyl substrate peptide 4 [7]: 8.29 S^-1
kcat/Km, intermolecular ligation of GF-peptide 5 (varied) with acyl substrate peptide 4 [7]: 19600 M^-1S^-1
Km, intermolecular ligation of peptide 1 (varied) with nucleophile peptide 2 [8]: 182 µM
kcat, intermolecular ligation of peptide 1 (varied) with nucleophile peptide 2 [8]: 0.17 S^-1
kcat/Km, intermolecular ligation of peptide 1 (varied) with nucleophile peptide 2 [8]: 932 M^-1S^-1
Km, cyclization at pH 4.5 [9]: 25.6 µM
Km, cyclization at pH 7.0 [9]: 42.3 µM
Vmax, cyclization at pH 7.4 [9]: with Vmax of 0.004 and 5.633 µM/min respectively
kcat, cyclization at pH 4.5 [9]: 0.28 s⁻¹
kcat, cyclization at pH 7.0 [9]: 0.021 s⁻¹
kcat/Km, cyclization at pH 4.5 [9]: 10900 ± 195 M^-1s^-1
kcat/Km, cyclization at pH 7.0 [9]: 752 M^-1s^-1
kcat/Km, cyclization at pH 7.0 (value in running text, differs from Table 2) [9]: kcat/Km as ˜847±123 M -1 5 1

More lines, main results first:

Km (OaAEP1b; pH 5.5): 35.1 ± 5.9 µM
Molecule: GISTKSIPPISYRDGL (GISTKSIPPISYRDGL-NH2) [Peptide 21a]
kcat (OaAEP1b; pH 5.5): 5.9 ± 0.7 s⁻¹

Km (VyPAL2; VyPAL2, cyclization, pH 4.5): 28.4 ± 4.1 µM
Km (VyPAL2; VyPAL2, cyclization, pH 7.4): 25.8 ± 1.7 µM
Km (butelase-1; pH 4.5): 12.7 ± 2.1 µM
kcat (butelase-1; pH 4.5): 0.6 ± 0.05 s⁻¹
Km (butelase-1; pH 7.4): 13.5 ± 1.5 µM
kcat (butelase-1; pH 7.4): 9.4 ± 0.3 s⁻¹
difference in reaction efficiency between 21j and 21e (butelase-1; butelase-1, pH 7.4): about 950 times
Km (OaAEP1b; pH 7.0): 25.3 ± 2.5 µM
Molecule: GISTKSIPPISYRNGL (GISTKSIPPISYRNGL-NH2) [Peptide 21j]
optimum pH for cyclization (VyPAL2; 25 nM VyPAL2, pH range 4.0 to 7.4, 5 μM 21e or 50 μM 21j): 6.5-7.4
kcat (VyPAL2; VyPAL2, cyclization, pH 4.5): 1.9 ± 0.18 s⁻¹
Vmax (VyPAL2; VyPAL2, cyclization, pH 7.4): 5.633 µM/min
kcat (VyPAL2; VyPAL2, cyclization, pH 7.4): 5.5 ± 0.4 s⁻¹
fold difference, cyclization rate of 21j versus 21e (VyPAL2; VyPAL2, pH 7.4): > 1000 folds
kcat (OaAEP1b; pH 7.0): 5.5 ± 0.3 s⁻¹
difference in reactivity between 21j and 21e (biggest) (OaAEP1b; pH 7.4): 9.5 folds
